# Results published in patent US20150259430A1 (MAB DISCOVERY, published 2015).
# Substitutions are numbered along the chain they refer to.
# B1: Antibody 32 (antibody, V domains shown)
# VH: QSVEESGGRLVTPGTPLTLTCTVSGFSLSSYDMSWVRQAPGKGLEWIGFIDGDSNTYDATWAKGRFTISKTSTTVDLKITSPTTEDTATYFCTRGFNLWGQGTLVTVSS
# VL: DVVMTQTPASVSEPVGGTVTIKCQASQSISSYLAWYQQKPGQPPKLLIYKASTLASGVSSRFKGSGSGTEFTLTISDLECADAATYYCQCSAGGRSGIGGFGGGTEVVVK
# notes: rabbit IgG in B-cell supernatant
# B2: Antibody 28 (antibody, V domains shown)
# VH: QEQLEESGGDLVKPGASLTLTCKVSGFSLTSGYYMCWVRQAPGKGLEWLACIYTGSSGRTYYASWAKGRFTISKTSSTTVTLQMTSLTAADTATFFCARELYLSSVLWGPGTLVTVSS
# VL: DVVMTQTPASVSEPVGGTVTIKCQASQSISSSYLSWYQQKPGQPPKLLIYRASTLESGVPSRFKGSGSGTEFTLTISDLECADAATYYCQCTDYAGSYVGGAFGGGTEVVVK
# notes: as for B1
# B3: Antibody 52 (antibody, V domains shown)
# VH: QSVEESGGRLVTPGTALTLTCTVSGFSLSSGDMSWVRQAPGKGLEWIGYIWSGVSTYYANWAKGRFTISKTSSTTVDLKMTSLTIEDTATYFCARVDFYSYVYSLWGPGTLVTVSS
# VL: ALVMTQTPASVEAAVGGTVTIKCQASQSISSCLAWYQQKPGQPPKLLIYSASTLASGVPSRFKGSGSGTEYTLTISGVECADAATYYCQQHYTSNNIDNAFGGGTEVVVK
# notes: as for B1
# B4: Antibody 55 (antibody, V domains shown)
# VH: QSLEESGGRLVTPGGSLTLTCTVSGSDISSYDMSWVRQAPGKGLEWIGYIWSGTTIYYASWPKGRFTISKTSSTTVDLKMTSLTTEDTATYFCAAINIYTYVYSLWGPGTLVTVSS
# VL: AYDMTQTPASVEAAVGGTVTIKCQASESIYSSLAWYQQKSGQPPKLLIYLASTLASGVPSRFKGSGSGTDYTLTISGVECADAATYYCQQHYSGSNVDNAFGGGTEVVVK
# notes: as for B1
# B5: Antibody 53 (antibody, V domains shown)
# VH: B4 VH with S30T, M33A, T55K, I56T, P62A, A95T, I96V, I98T
# VL: B4 VL with A13V, E27Q, Y30S, D70E, S93T, G94A, S95L
# notes: as for B1
# B6: Antibody 56 (antibody, V domains shown)
# VH: QSLEESGGRLVTPGTPLTLTCTASGFSLSSYDLSWVRQAPGKGLEWIAYIWSGDKTYYANWAKGRFTISKTSSTTVDLKMTSLTTEDTATYFCATVNIYSYVYSLWGPGTLVTVSS
# VL: B4 VL with A13V, E27Q, Y30S, S31T, S32A, D70E, G94S, S95N
# notes: as for B1
# B7: Antibody 24 (antibody, V domains shown)
# VH: QSVEESGGRLVTPGTPLTLTCTVSGFSLSSNAISWVRQAPGKGLEWIGFINIYGSTYYASWAKGRFTISRTSTTVDLKMTSLTTEDTATYFCARDRTGDSPTRLDLWGQGTLVTVSS
# VL: DVVMTQTPASVEAAVGGTVTIKCQASQSISSYLSWYQQKPGQPPKLLIYDASTLASGVPSRFKGSGSGTQFTLTISDLECADAATYYCQCTYGYGASSAYGNAFGGGTEMVVK
# notes: as for B1
# B8: Antibody 1 (antibody, V domains shown)
# VH: QSLEESGGRLVTPGTPLTLTCTASGFSLSSYAMIWVRQAPGEGLEYIGIIITGGSAYYANWAKGRFTISRTSTTVDLKMTSLTTEDTATYFCARGYSGSSGDLWGQGTLVTVSS
# VL: DVVMTQTPASVSEPVGGTVTIKCQASQSISSWLSWYQQKPGQPPKLLIYGASNLASGVSSRFKGSRSGTEYTLTISDLECADAATYYCQCTDYTSKYVGAFGGGTEVLVR
# notes: as for B1
# B9: Antibody 74 (antibody, V domains shown)
# VH: QSVEESGGRLVTPGTPLTLTCTVSGFSLSSGYMNWVRQAPGKGLEWIGRIHTLSGSIWYASWVKGRFTISKTSTTVDLKMTSLTTKDTATYFCARGNAGGSIEYGMDLWGPGTLVTVSA
# VL: AYDMTQTPASVEAAVGGTVTIKCQASESITNYLNWYQQKPGQPPKLLIYSASTLASGVPSRFKGSGSGTQFTLTISGVECADAGTYYCQQGYSLINVGDIFGGGTEVVVR
# notes: as for B1
# B10: Antibody 9 (antibody, V domains shown)
# VH: QEQLEESGEGLVKPGTPLTLTCTASGFSLSSGDMSWVRQAPGKGLEWIGTIGVDGSTDYANWAEGRFTISRTSTTVDLKMTSPTTEDTATYFCARGLFDDYTFNLWGQGTLVTVSS
# VL: AYDMTQTPASVEVAVGGTVTIKCQASQNIYTYLSWYQQKPGQPPKLLIYKTSTLASGVPSRFSGSGSGTEYTLTVSGVQCDDAATYYCQQGYTTSSNVATPFGGGTEVVVK
# notes: as for B1
# B11: Antibody 15 (antibody, V domains shown)
# VH: QSVEESGGRLVTPGTPLTLTCTVSGFSLNSHAMSWVRQAPGKGLEWIGIISSSGSAWYATWVKGRFTISKTSTTVDLKMTSLTTEDTATYFCARDSAMVPSNFNLWGQGTLVTVSS
# VL: AIEMTQSPPSLSASVGETVRIRCLASEFLFNAVSWYQQKPGKPPTLLISGASNLESGVPPRFSGSGSGTDYTLTIGGVQAEDVATYYCLGDFSGGADLTFGAGTKVEIK
# notes: as for B1
# B12: Antibody 18 (antibody, V domains shown)
# VH: QSVEESGGRLVTPGTPLTLTCTVSGFSLSTYWMSWVRQAPGKGLEYIGFINTGGNAYYASWAKGRFTISKTSTSVDLKITSPTTEDTATYFCAGAYVGDVGDGYALTLWGQGTLVTVSS
# VL: DVVMTQTPASVSEPVGGTVTIKCQASQSIGNKLAWYQQVPGQPPKLLIYSASPLASGVSSRFKGSRSGTEYTLTISDLECADAATYYCQCTYYGSSGNAFGGGTEVVVK
# notes: as for B1
# B13: Antibody 34 (antibody, V domains shown)
# VH: QEQLVESGGGLVQPEGSLTLTCKASGFSFSSGYYMCWVRQAPGKGLEWIACIYADSSESTYYASWAKGRFTISKTSSTTVTLQVTSLTAADTATYFCARWGTVAGYSTFNLWGPGTLVTVSS
# VL: DVVMTQTPASVSEPVGGTVTIKCQASQSISTALAWYQQKPGQPPKLLIYFTSTLASGVSSRFKGSGSGAEFTLTISDLECADAATYYCQGYYYVTNFPFGGGTEVVVK
# notes: as for B1
# B14: Antibody 88 (antibody, V domains shown)
# VH: QSVEESGGRLVTPGTPLTLTCTVSGFPLSSYVMSWVRQAPGTGLEYIGIVGIGGSAYYASWAKGRFTISRTSTTVDLKMTSLTPEDTATYFCARGAGGNFYSPLDLWGQGTLVTVSS
# VL: DIVMTQTASPLSGAVGGTVTIKCQASQSISNELAWYQQKPGQRPKLLIYLASTLASGVPSRFKGSGSGTDFTLTISDLECADAATYYCQSYSDTSSISYGYGFGGGTEVVVK
# notes: as for B1
# B15: Antibody 6 (antibody, V domains shown)
# VH: QSVEESGGRLVTPGTPLTLTCTVSGFSLSSYTMGWVRQAPGKGLEYIGIINTGGYTYYASWAKGRFTISRTSTTVDLSMTSLTTEDTATYFCARVYPGSSCDLWGQGTLVTVSS
# VL: B2 VL
# notes: as for B1
# B16: Antibody 21 (antibody, V domains shown)
# VH: QEHLEESGGGLVKPPGSLTLTCTASGFSFSSTYYICWVRQAPGKGLEWIGCIYAGSGTTYYASWAKGRFTISKTSSTTVTLQMASLTAADTATYFCARSSDSWTYGMDLWGPGTLVTVSS
# VL: DIVMTQTPASVSEPVGGTVTIKCQASQSISSYLAWYQQKPGQPPKRLIYKASTLASGVPSRFKGSGSGTDFTLTISDLECADAATYYCQCTYGNTGSNFFYGFGGGTEVVVK
# notes: as for B1
# B17: Antibody 20 (antibody, V domains shown)
# VH: QSLEESGGGLVQPEGSLTLTCTASGLDASSNCWVCWVRQAPGKGLEWIACIYAIGSGVTYYASWVNGRFSISKTSSTTVTLQMTSLTVADTATYLCARVLNGVGYIDLWGPGTLVTVSS
# VL: DIVMTQTPSSVEAAVGGTVTIKCQASQSVYNNNWLAWYQQIPGQPPKLLIYESSTLASGVPSRFKGSGSGTQFTLTISDVQCDDAAMYYCQTYYYSSSRTYAFGGGTEVVVK
# notes: as for B1
# B18: Antibody 72 (antibody, V domains shown)
# VH: QSLEESGGRLVTPGTLLTLTCTASGIDLSGHAMAWVRQAPGKGLEWIGIIYDNGITNYPTWAKGRFTISKTSTTVELKFTSPTTEDTATYFCARDTGNGALRLTLWGPGTLVTVSS
# VL: DIVMTQTPSPVSAAVGGTVTIKCQASQSIGSWLSWYQQKPGQRPKLLIYGASTLESGVPSRFKGSGSGTEFTLTISDLECADAATYYCHCTYGSVSGNAFGGGTEVVVK
# notes: as for B1
# B19: Antibody 45 (antibody, V domains shown)
# VH: QSVEESGGRLVTPGTPLTLTCTVSGFSLSSYAMTWVRQAPGKGLEWIGIIDHSRATYYANWAKGRFTISKTSSTTVDLKVTSLTTEDTATYFCARFFNPGGSGYLRLWGQGTLVTVSS
# VL: DVVMTQTPASVSEPVGGTVTIKCQASQIISNWLAWYQQKPGQPPKLLIYGASILASGVPSRFKASRSGTDYTLTIGDLECADAATYYCQCPDYSDTSLGSFGGGTEVVVR
# notes: as for B1
# B20: Antibody 78 (antibody, V domains shown)
# VH: QSVEESGGRLVTPGTPLTLTCTVSGIDLSSYWMIWVRQAPGEGLEYIGFISNGGGAYYANWTKGRFTISRTSTTVDLKMTSLTTEDTATYFCARAYTTVTIGGFDLWGPGTLVTVSS
# VL: AYDMTQTPASVEVAVGGTVTINCQASQNIYNGLAWYQQKPGQPPKLLIYLASTLASGVPSRFKGSGSGTEFTLTISDLECADAATYYCQQGFSVNNVGNVFGGGTEMVVK
# notes: as for B1
# B21: Antibody 79 (antibody, V domains shown)
# VH: QSVEESGGRLVTPGTPLTLTCTVSGFSLSSNAMSWVRQAPGKGLEWIGIINIYGSTNYASWAKGRFTISKTSSTTVDLKITSPTTEDTATYFCARDYGGVSATRLDLWGQGTLVTVSS
# VL: B7 VL with S30G, T53N, A55E, S56D, Q70E, F71Y, A84V, A96I, A99S, M110V
# notes: as for B1
# Biological target: T1, recombinant Fc chimeric conjugate of human HER2 (human, UniProt P04626 23-652)
# T1 construct: extracellular domain; Coated on the ELISA plate
# Assay: ELISA, coated antigen
# Method: (§1) Microtiter plates were coated with a) c-Met, IGF-1R, EGFR, HER2, and/or HER3 protein or b) EGFR, HER2, and/or HER3 (recombinant Fc chimeric conjugates of human c-Met, IGF-1R, EGFR, HER2, HER3 or IL12 Rβ1). After a blocking process, specific antibodies from B-cell supernatants bind to the targets and are then detected by a POD-labeled anti-rabbit IgG antibody. The IL12R binding was used as a counter-screen.
# (§2) 12.5 μL 0.5 μg/mL protein in PBS was transferred to a microtiter plate incubated and washed 3× with Wash Buffer. 90 μL Block Buffer was added to each well, incubated and washed. 12.5 μL Standard Antibody (Anti-EGF-Receptor; HER2 Rabbit anti-Human Monoclonal (extracellular domain) (SP3) Antibody; HER3 (N-terminal) antibody; start concentration 2 μg/ml; IL-12Rbeta1 antibody start concentration 500 ng/ml) in 1:2 dilutions or sample diluted in ELISA buffer was added, incubated and washed. 12.5 μl 1:5000 POD-Antibody (Anti-rabbit IgG, peroxidase-linked species-specific Fab2 fragment (from donkey) (ECL); assay dilution: 1:5000) in Elisa Buffer was added, incubated and washed. 15 μl TMB was added and 15 μl HCl was added after sufficient development. Absorbance (Optical Density O.D.) was read at 450 nm/620 nm.
row,binding result,Binder
1,no binding (tested: OD 0.1 or lower),B1
2,no binding (tested: OD 0.1 or lower),B2
3,no binding (tested: OD 0.1 or lower),B3
4,no binding (tested: OD 0.1 or lower),B4
5,no binding (tested: OD 0.1 or lower),B5
6,no binding (tested: OD 0.1 or lower),B6
7,no binding (tested: OD 0.1 or lower),B7

# Biological target: T2, recombinant Fc chimeric conjugate of human HER3 (human, UniProt P21860 20-643)
# T2 construct: extracellular domain; Coated on the ELISA plate
# T2 sequence (P21860 20-643, change not shown): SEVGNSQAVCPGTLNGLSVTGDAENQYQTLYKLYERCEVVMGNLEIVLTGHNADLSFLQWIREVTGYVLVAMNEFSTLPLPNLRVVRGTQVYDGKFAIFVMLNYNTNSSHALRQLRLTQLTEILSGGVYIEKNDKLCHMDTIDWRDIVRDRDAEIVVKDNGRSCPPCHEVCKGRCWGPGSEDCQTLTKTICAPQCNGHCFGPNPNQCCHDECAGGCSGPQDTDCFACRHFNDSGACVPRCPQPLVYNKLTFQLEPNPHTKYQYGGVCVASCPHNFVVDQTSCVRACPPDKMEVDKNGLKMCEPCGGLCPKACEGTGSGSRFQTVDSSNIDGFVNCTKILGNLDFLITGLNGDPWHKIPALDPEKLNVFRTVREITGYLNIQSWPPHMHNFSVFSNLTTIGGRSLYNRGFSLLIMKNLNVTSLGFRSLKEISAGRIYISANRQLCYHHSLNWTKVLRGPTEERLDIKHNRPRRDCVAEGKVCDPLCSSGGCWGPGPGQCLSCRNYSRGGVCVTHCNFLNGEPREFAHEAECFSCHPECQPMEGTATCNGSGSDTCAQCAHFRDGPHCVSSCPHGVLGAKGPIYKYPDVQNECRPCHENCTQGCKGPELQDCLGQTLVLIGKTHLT
# Assay: ELISA, coated antigen
# Method: as §1, §2
row,binding result,Binder
1,no binding (tested: OD 0.1 or lower),B8
2,no binding (tested: OD 0.1 or lower),B9
3,no binding (tested: OD 0.1 or lower),B10
4,no binding (tested: OD 0.1 or lower),B11
5,no binding (tested: OD 0.1 or lower),B12
6,no binding (tested: OD 0.1 or lower),B13
7,no binding (tested: OD 0.1 or lower),B14
8,no binding (tested: OD 0.1 or lower),B15
9,no binding (tested: OD 0.1 or lower),B16
10,no binding (tested: OD 0.1 or lower),B17
11,no binding (tested: OD 0.1 or lower),B18
12,no binding (tested: OD 0.1 or lower),B19
13,no binding (tested: OD 0.1 or lower),B20
14,no binding (tested: OD 0.1 or lower),B21
